The source of these data is article PMC3077382, “14-3-3 Proteins Regulate Exonuclease 1–Dependent Processing of Stalled Replication Forks” (PLoS Genetics, 2011).

The assay addresses T1, Exo1-Myc (S. cerevisiae, UniProt P39875 1-702).
T1 construct: Saccharomyces cerevisiae Exonuclease 1 (Exo1); C-terminal Myc tag added to the endogenous EXO1 gene; also called yeast Exo1; source: S. cerevisiae (W303-1A background), endogenous EXO1 gene tagged; in whole cell extract; immunoprecipitated from control or HU-treated cells for Far Western; not shown: Myc, C-terminal, kept
T1 sequence (looked up): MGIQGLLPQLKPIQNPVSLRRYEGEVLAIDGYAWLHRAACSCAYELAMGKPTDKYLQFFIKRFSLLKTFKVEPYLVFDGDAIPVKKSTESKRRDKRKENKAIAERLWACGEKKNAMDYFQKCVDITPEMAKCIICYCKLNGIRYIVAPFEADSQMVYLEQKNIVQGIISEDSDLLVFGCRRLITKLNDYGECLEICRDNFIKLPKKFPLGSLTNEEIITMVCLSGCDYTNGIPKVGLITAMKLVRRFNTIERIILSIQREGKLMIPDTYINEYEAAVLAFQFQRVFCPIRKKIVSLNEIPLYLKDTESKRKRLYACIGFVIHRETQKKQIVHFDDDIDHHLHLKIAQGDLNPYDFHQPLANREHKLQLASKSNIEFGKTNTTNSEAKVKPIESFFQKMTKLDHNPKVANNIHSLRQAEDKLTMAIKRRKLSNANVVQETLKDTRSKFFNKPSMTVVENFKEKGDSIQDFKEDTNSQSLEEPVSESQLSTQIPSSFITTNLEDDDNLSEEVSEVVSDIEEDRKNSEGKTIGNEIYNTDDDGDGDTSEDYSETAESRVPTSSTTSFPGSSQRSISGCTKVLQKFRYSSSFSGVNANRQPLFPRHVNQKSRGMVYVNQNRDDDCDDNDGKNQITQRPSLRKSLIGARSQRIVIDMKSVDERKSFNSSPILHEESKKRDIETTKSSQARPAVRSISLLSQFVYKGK
Description: far-Western, overlay or dot blot; Exo1-Myc immunoprecipitated from untreated or HU-treated yeast cells, resolved by SDS-PAGE, transferred to PVDF and denatured/renatured; probed with purified GST-Bmh1 (2 µg). The following applies: both partners purified.

B1: GST-Bmh1 (natural protein, S. cerevisiae, UniProt P29311 1-267, looked up)
chain: MSTSREDSVYLAKLAEQAERYEEMVENMKTVASSGQELSVEERNLLSVAYKNVIGARRASWRIVSSIEQKEESKEKSEHQVELICSYRSKIETELTKISDDILSVLDSHLIPSATTGESKVFYYKMKGDYHRYLAEFSSGDAREKATNASLEAYKTASEIATTELPPTHPIRLGLALNFSVFYYEIQNSPDKACHLAKQAFDDAIAELDTLSEESYKDSTLIMQLLRDNLTLWTSDMSESGQAEDQQQQQQHQQQQPPAAAEGEAPK
notes: Saccharomyces cerevisiae 14-3-3 protein Bmh1; also called purified recombinant GST-Bmh1
For B1, the binding result is “binds”.
